# Data: US20100280227A1 (Genentech, published 2010)
# Read-outs that look alike come from different tables or passages of the source.
# B1: mouse BR3 extracellular domain (receptor)
# chain: MGARRLRVRSQRSRDSSVPTQCNQTECFDPLVRNCVSCELFHTPDTGHTSSLEPGTALQPQEGS
# notes: also called mBR3-ECD; mBR-ECD
# How the values were obtained:
# [1] = target: T1, mouse BR3 (form in the mapping assay not stated) (mouse, UniProt Q9D8D0 1-71, limits assumed); experiment: competition ELISA on murine BR3 against biotinylated B9C11
# T1 construct: May be the same as m2, m6 or m10
# T1 sequence (looked up): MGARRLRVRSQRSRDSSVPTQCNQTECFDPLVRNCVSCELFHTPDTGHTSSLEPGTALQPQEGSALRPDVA
# [2] = target: T1, mouse BR3 (form in the mapping assay …); experiment: competition ELISA on murine BR3 against biotinylated V3-1m
# [3] = target: T2, human BR3 expressed on cells (human, UniProt Q96RJ3 1-184); experiment: BJAB cells, direct binding
# T2 construct: whole, on cells; also called BR3 on BJAB cells; cell surface BR3
# [4] = target: T2, human BR3 expressed on cells; experiment: BJAB cells, competition with biotin-BAFF
# [5] = target: T3, human BR3 displayed on phage, V20 alanine-scan mutant (human, UniProt Q96RJ3 1-61, limits assumed); experiment: shotgun alanine scan of phage-displayed BR3; F against wild type;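 further: Phage-displayed BR3 shotgun alanine libraries, two selection rounds for anti-BR3 antibody binding, normalized to a display selection, F above 1 marks a harmful substitution, below 1 a beneficial one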
# T3 construct: One position of the shotgun alanine scan of BR3 on phage
# [6] = target: T4, human BR3 displayed on phage, E23 alanine-scan mutant (human, UniProt Q96RJ3 1-61, limits assumed); experiment: as above
# T4 construct: One position of the shotgun alanine scan of BR3 on phage
# [7] = target: T5, human BR3 displayed on phage, P18 alanine-scan mutant (human, UniProt Q96RJ3 1-61, limits assumed); experiment: as above
# T5 construct: One position of the shotgun alanine scan of BR3 on phage
# [8] = target: T6, human BR3 displayed on phage, L28 alanine-scan mutant (human, UniProt Q96RJ3 1-61, limits assumed); experiment: as above
# T6 construct: One position of the shotgun alanine scan of BR3 on phage
# [9] = target: human BR3 displayed on phage, mutated at A22 in the alanine scan (human, UniProt Q96RJ3 1-61, limits assumed); experiment: as above
# [10] = target: T7, human BR3 displayed on phage, P21 alanine-scan mutant (human, UniProt Q96RJ3 1-61, limits assumed); experiment: as above
# T7 construct: One position of the shotgun alanine scan of BR3 on phage
# [11] = target: T8, human BR3 displayed on phage, L37 alanine-scan mutant (human, UniProt Q96RJ3 1-61, limits assumed); experiment: as above
# T8 construct: One position of the shotgun alanine scan of BR3 on phage
# [12] = target: human BR3 displayed on phage, mutated at A34 in the alanine scan (human, UniProt Q96RJ3 1-61, limits assumed); experiment: as above
# [13] = target: T9, human BR3 displayed on phage, G36 alanine-scan mutant (human, UniProt Q96RJ3 1-61, limits assumed); experiment: as above
# T9 construct: One position of the shotgun alanine scan of BR3 on phage
# [14] = target: T10, human BR3 displayed on phage, T17 alanine-scan mutant (human, UniProt Q96RJ3 1-61, limits assumed); experiment: as above
# T10 construct: One position of the shotgun alanine scan of BR3 on phage; the F value gives the effect of this change against wild type; See m1 for the parent
# [15] = target: T11, human BR3 displayed on phage, V33 alanine-scan mutant (human, UniProt Q96RJ3 1-61, limits assumed); experiment: as above
# T11 construct: One position of the shotgun alanine scan of BR3 on phage
# [16] = target: T12, human BR3 displayed on phage, D26 alanine-scan mutant (human, UniProt Q96RJ3 1-61, limits assumed); experiment: as above
# T12 construct: One position of the shotgun alanine scan of BR3 on phage
# [17] = target: T13, human BR3 displayed on phage, F25 alanine-scan mutant (human, UniProt Q96RJ3 1-61, limits assumed); experiment: as above
# T13 construct: One position of the shotgun alanine scan of BR3 on phage
# [18] = target: T14, human BR3 displayed on phage, L27 alanine-scan mutant (human, UniProt Q96RJ3 1-61, limits assumed); experiment: as above
# T14 construct: One position of the shotgun alanine scan of BR3 on phage
# [19] = target: T15, human BR3 displayed on phage, V29 alanine-scan mutant (human, UniProt Q96RJ3 1-61, limits assumed); experiment: as above
# T15 construct: One position of the shotgun alanine scan of BR3 on phage
# [20] = target: T16, human BR3 displayed on phage, L38 alanine-scan mutant (human, UniProt Q96RJ3 1-61, limits assumed); experiment: as above
# T16 construct: One position of the shotgun alanine scan of BR3 on phage
# [21] = target: T17, human BR3 displayed on phage, R42 alanine-scan mutant (human, UniProt Q96RJ3 1-61, limits assumed); experiment: as above
# T17 construct: One position of the shotgun alanine scan of BR3 on phage
# [22] = target: T18, human BR3 displayed on phage, P41 alanine-scan mutant (human, UniProt Q96RJ3 1-61, limits assumed); experiment: as above
# T18 construct: One position of the shotgun alanine scan of BR3 on phage
# [23] = target: T19, human BR3 displayed on phage, H31 alanine-scan mutant (human, UniProt Q96RJ3 1-61, limits assumed); experiment: as above
# T19 construct: One position of the shotgun alanine scan of BR3 on phage
# [24] = target: T20, human BR3 displayed on phage, T40 alanine-scan mutant (human, UniProt Q96RJ3 1-61, limits assumed); experiment: as above
# T20 construct: One position of the shotgun alanine scan of BR3 on phage
# [25] = target: T21, human BR3 displayed on phage, R39 alanine-scan mutant (human, UniProt Q96RJ3 1-61, limits assumed); experiment: as above
# T21 construct: One position of the shotgun alanine scan of BR3 on phage
# [26] = target: T2, human BR3 expressed on cells; experiment: BJAB cells, competition with biotin-BAFF; remark: listed apart in the source
# [27] = target: B1; experiment: SPR, IgG on chip, BR3 ECD in solution
# [28] = target: T22, human BR3 extracellular domain (human, UniProt Q96RJ3 1-61); experiment: SPR, IgG on chip, BR3 ECD in solution
# T22 construct: biotinylated where used as tracer; also called hBR3-ECD; BR3-ECD
# [29] = target: T2, human BR3 expressed on cells; experiment: BJAB cells, direct binding; remark: listed apart in the source
# [30] = target: T23, murine BR3 expressed on cells (mouse, UniProt Q9D8D0 1-175); experiment: BHK cells expressing murine BR3, competitive binding assay against BAFF
# T23 construct: whole, on cells; also called murine BR3 on BHK cells; mouse BR3
# T23 sequence (looked up): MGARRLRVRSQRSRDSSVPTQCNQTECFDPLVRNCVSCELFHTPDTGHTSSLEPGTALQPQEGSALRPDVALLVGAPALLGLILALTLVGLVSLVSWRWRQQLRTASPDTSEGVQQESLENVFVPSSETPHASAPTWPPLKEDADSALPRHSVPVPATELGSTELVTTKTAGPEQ
# V3-46s Fab [31] = target: T24, V3-46s Fab; experiment: phage competition ELISA, ECD in solution
# T24 construct: N31S mutant of V3-46; also called V46s; N31S
# V3-1 Fab [32] = target: T25, V3-1 Fab; experiment: phage competition ELISA, ECD in solution
# T25 construct: soluble Fab in SPR
# V3-46 N31A phage clone = target: T26, V3-46 N31A phage clone; experiment: phage competition ELISA, ECD in solution (printed Phage ID50)
# T26 construct: also called V3-46a
# V3-46 phage clone = target: T27, V3-46 phage clone; experiment: as above
# T27 construct: also called V3-46 WT; clone 46
# V3-46s Fab [33] = target: T24, V3-46s Fab; experiment: as above
# V3-46 N31Q phage clone = target: T28, V3-46 N31Q phage clone; experiment: as above
# T28 construct: also called V3-46q
# T28 sequence (VH, as listed by the source, chain 1 of 2): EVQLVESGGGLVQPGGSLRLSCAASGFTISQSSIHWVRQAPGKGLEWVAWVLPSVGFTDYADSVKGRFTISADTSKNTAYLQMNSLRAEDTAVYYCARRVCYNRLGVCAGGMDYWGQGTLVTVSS
# T28 sequence (VL, as listed by the source, chain 2 of 2): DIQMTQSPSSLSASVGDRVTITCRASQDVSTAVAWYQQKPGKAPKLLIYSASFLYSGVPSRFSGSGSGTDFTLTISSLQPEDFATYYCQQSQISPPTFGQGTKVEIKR
# V3-46s-42 Fab = target: T29, V3-46s-42 Fab; experiment: phage competition ELISA, ECD in solution (printed Phage50)
# T29 construct: soluble Fab in SPR; also called V46s-42
# T29 sequence (VH, as listed by the source, chain 1 of 2): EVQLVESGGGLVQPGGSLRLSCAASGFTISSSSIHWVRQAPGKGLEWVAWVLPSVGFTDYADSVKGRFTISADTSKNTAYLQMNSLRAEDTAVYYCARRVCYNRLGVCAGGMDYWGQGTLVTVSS
# T29 sequence (VL, as listed by the source, chain 2 of 2): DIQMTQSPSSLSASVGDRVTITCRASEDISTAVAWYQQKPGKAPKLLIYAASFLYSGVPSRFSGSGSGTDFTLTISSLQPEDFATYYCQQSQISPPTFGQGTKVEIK
# V3-46s Fab [34] = target: T24, V3-46s Fab; experiment: as above
# V3-46s-9 Fab = target: T30, V3-46s-9 Fab; experiment: as above
# T30 construct: soluble Fab in SPR; also called V46s-9
# T30 sequence (VL, as listed by the source, chain 2 of 2): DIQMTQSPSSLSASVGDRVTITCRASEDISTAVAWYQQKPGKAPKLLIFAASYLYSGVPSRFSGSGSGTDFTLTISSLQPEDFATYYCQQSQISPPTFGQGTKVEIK
# V3-11 Fab = target: T31, V3-11 Fab; experiment: phage competition ELISA, ECD in solution
# T31 construct: soluble Fab in SPR
# T31 sequence (VH, as listed by the source, chain 1 of 2): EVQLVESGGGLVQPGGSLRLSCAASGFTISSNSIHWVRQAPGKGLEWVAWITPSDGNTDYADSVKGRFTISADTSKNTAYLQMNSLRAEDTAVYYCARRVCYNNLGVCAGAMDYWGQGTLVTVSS
# T31 sequence (VL, as listed by the source, chain 2 of 2): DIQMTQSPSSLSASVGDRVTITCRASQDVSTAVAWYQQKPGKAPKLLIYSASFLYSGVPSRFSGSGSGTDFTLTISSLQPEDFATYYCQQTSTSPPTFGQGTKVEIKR
# V3-13 Fab = target: T32, V3-13 Fab; experiment: phage competition ELISA, ECD in solution
# T32 construct: soluble Fab in SPR
# V3-1 Fab [35] = target: T25, V3-1 Fab; experiment: phage competition ELISA, ECD in solution; remark: listed apart in the source
# V3-12 Fab = target: T33, V3-12 Fab; experiment: phage competition ELISA, ECD in solution
# T33 construct: soluble Fab in SPR
# T33 sequence (VH, as listed by the source, chain 1 of 2): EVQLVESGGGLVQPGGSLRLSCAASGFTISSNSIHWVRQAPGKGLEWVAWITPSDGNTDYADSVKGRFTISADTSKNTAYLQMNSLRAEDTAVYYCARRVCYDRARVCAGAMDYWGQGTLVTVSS
# T33 sequence (VL, as listed by the source, chain 2 of 2): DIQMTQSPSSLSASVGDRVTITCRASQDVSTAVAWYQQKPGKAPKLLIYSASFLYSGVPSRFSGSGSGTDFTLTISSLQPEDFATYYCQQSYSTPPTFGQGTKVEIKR
# mouse BR3-Fc = target: T34, mouse BR3-Fc (mouse); experiment: ELISA: mBAFF-Flag titrated on coated mBR3-Fc, then F(ab)'2 phage #3 (V3) added and detected
# T34 construct: (BR3 ECD fused to a murine Fc); also called mBR3-Fc; murine BR3-Fc
# T34 chain: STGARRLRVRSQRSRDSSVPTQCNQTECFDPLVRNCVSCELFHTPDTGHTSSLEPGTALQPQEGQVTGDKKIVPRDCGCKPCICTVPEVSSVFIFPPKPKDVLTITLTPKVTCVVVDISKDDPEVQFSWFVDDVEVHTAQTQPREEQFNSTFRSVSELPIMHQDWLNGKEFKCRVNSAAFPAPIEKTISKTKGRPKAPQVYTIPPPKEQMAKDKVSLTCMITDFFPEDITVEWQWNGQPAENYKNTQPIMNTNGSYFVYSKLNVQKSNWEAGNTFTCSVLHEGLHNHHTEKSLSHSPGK
binder,measurement,setting,value
"V3-1m (antibody, mouse IgG2a, V domains shown, also called mV3-1; V3-1 (IgG)) VH: EVQLVESGGGLVQPGGSLRLSCAASGFTISSNSIHWVRQAPGKGLEWVAWITPSDGNTDYADSVKGRFTISADTSKNTAYLQMNSLRAEDTAVYYCARRVCYNRLGVCAGGMDYWGQGTLVTVSS VL: DIQMTQSPSSLSASVGDRVTITCRASQDVSTAVAWYQQKPGKAPKLLIYSASFLYSGVPSRFSGSGSGTDFTLTISSLQPEDFATYYCQQSRITPPTFGQGTKVEIKR",IC50 (read off the curve),[1],~0.8 µg/mL
same,IC50 (read off the curve),[2],~0.6 µg/mL
same,EC50,[3],4.3 nM
same,IC50,[4],8.9 nM
same,F value,[5],0.9
same,F value,[6],2.4
same,F value,[7],0.8
same,F value,[8],98
same,F value,[9],0.7
same,F value,[10],0.6
same,F value,[11],0.7
same,F value,[12],13
same,F value,[13],0.7
same,F value,[14],0.5
same,F value,[15],14
same,F value,[16],8.7
same,F value,[17],21
same,F value,[18],1.4
same,F value,[19],92
same,F value,[20],1.4
same,F value,[21],0.9
same,F value,[22],1.6
same,F value,[23],0.1
same,F value,[24],0.6
same,F value,[25],0.4
same,IC50,[26],2.47 nM
same,Kd,[27],1.56 nM
same,koff,[27],0.000131 s⁻¹
same,kon,[27],84000 M⁻¹ s⁻¹
same,Kd,[28],0.64 nM
same,koff,[28],0.000171 s⁻¹
same,kon,[28],267000 M⁻¹ s⁻¹
same,EC50,[29],3.37 nM
same,IC50,[30],36.2 nM
B1,IC50,V3-46s Fab [31],1.53 nM
same,IC50,V3-1 Fab [32],5.4 nM
same,IC50,V3-46 N31A phage clone,2.89 nM
same,IC50,V3-46 phage clone,1.42 nM
same,IC50,V3-46s Fab [33],1.53 nM
same,IC50,V3-46 N31Q phage clone,2.44 nM
same,IC50,V3-46s-42 Fab,0.23 nM
same,IC50,V3-46s Fab [34],1.7 nM
same,IC50,V3-46s-9 Fab,0.18 nM
same,IC50,V3-11 Fab,8.4 nM
same,IC50,V3-13 Fab,33 nM
same,IC50,V3-1 Fab [35],5.4 nM
same,IC50,V3-12 Fab,57 nM
"mBAFF-Flag protein (ligand, mouse, UniProt Q9WU72 127-309, looked up, not shown: small tags and cut ends) AFQGPEETEQDVDLSAPPAPCLPGCRHSQHDDNGMNLRNIIQDCLQLIADSDTPTIRKGTYTFVPWLLSFKRGNALEEKENKIVVRQTGYFFIYSQVLYTDPIFAMGHVIQRKKVHVFGDELSLVTLFRCIQNMPKTLPNNSCYSAGIARLEEGDEIQLAIPRENAQISRNGDDTFFGALKLL",IC50 (read off the curve),mouse BR3-Fc,~2 nM
